The nature of data set [1]: Biodistribution of radioiodinated (125I) proteins, modified avidin-type molecules and their complexes after i.v. injection. As for the experimental part: (ii) Animals. Age-matched CD-1 male mice (6-12 weeks old) were used in the experiments.
(iii) Biodistribution experiments. Groups of age-(6-12 weeks) and weight-matched male CD-1 mice were given intravenous (i.v.) injections into the lateral tail vein of radioiodinated ^125I-TNP- or ^125I-lactosylated-St (most biodistribution experiments were done in the range of 1-10 μg protein, 1 mCi of ^125I) into the lateral tail vein. At the time intervals indicated, blood samples were withdrawn from the tail, the mice were killed and their organs were dissected out, washed in PBS, blotted dry, weighed and counted for radioactivity. […] In subsequent experiments, CD-1 male mice were used and the results are presented as %/g or %/organ for single a single mouse or %/g ±SD or %/organ ±SD for pairs of mice unless otherwise stated.
(ii) Radioiodination. Proteins (0.2 mg/0.2ml) in 0.2M phosphate buffer pH 8.0 were reacted for 2 min with Na^125I (0.5 mCi for biodistribution experiment and 2.5mCi for external monitoring) in the presence of Chloramine-T (2mg/ml, 10 or 100 μl) in PBS for 2 min. The reaction, which facilitates attachment of the radioactive iodine to tyrosines, was terminated by the addition of sodium metabisulfite (2mg/ml, 10 or 100 μl) in PBS for 2 min followed by the addition of potassium iodide and carrier BSA (1 mg of each/0.1 ml PBS). The radioiodinated proteins ^125I-TNP-proteins were then chromatographed on Sephadex G-25 in PBS. TNP modification can take place before or after radioiodination. Avidin and TNP-Av, being low in tyrosine content (molar ratio of 4 tyrosine/avidin as compared to 24 tyrosine/streptavidin), were radiolabeled by ^125I-biotinyl-tyrosine as described below in Example 6.

For data set [2] the following is noted: mouse, in vivo; cited from earlier work.
The nature of data set [3]: Toxicity studies: liver histology, body weight and survival. The format is in vivo, CD-1 mice. The following applies: dose of 300 μg, observed for 4 months.
The nature of data set [4]: Pt content in organs by flame atomic absorption spectrometry after CDDP complexed to BT1-CMdex-TNP-St or free CDDP. It is filed as in vivo, mice. The note with it: 2 h following injection of 300 μg free CDDP. The procedure:
Pharmacokinetic studies confirmed the assumption of sustained release and prolonged maintenance of the complexed drug, as compared to the rapid elimination and inactivation of the free drug (Schechter et al., 1989a). Complexing CDDP to BT1-CMdex: BT1-CMdex (T-40) (0.15mM) was reacted with CDDP in DDW at a molar ratio of 1:60 for 24 h at 37° C. Following dialysis, the resulting BT1-CMdex-Pt contained 23-27 CDDP/CMdex. The complex BT1-CMdex-CDDP was reacted with TNP-St (at a ratio of 4:1) for targeting to the liver. […] To show the actual targeting of CDDP to the liver, CDDP was quantitatively determined in organs obtained at set time intervals following injection of 185 μg CDDP complexed to BT1-CMdex-TNP-St. Blood and organs were blended in an Ika Werk Ultra-Turrax blender (Jankel&Kunkel KG) in 5×Vol/tissue weight of 0.1N NaOH for 30 seconds. After centrifugation, the supernatants were filtered through Minisart 5 μm filter and the Pt content in the samples was determined by flame atomic absorption spectrometry (AA) at 265.9 nm in air-acetylene flame (in a Perkin Elmer 5100 PC spectrophotometer). Standards were prepared in a solution with matrix identical to that of the samples (i.e., normal tissues), to account for possible matrix interference. Results are expressed as %/g, i/organ or μg/organ in individual mice.

Data set [5] is described as follows: [3H] radioactivity in tissue extracts after BT1-CMdex-FUR ([3H]-uridine) alone or complexed to TNP-St. The format is in vivo, mice. The following applies: 1 and 4 h. The procedure:
The actual targeting of FUR to the liver was carried out by a BT1-CMdex (T-40)-FUR product in which FUR was trace-labeled with [^3H] uridine. Mice were injected with BT1-CMdex-FUR-([^3H]-uridine) alone or complexed to TNP-St and at set time intervals blood was withdrawn, organs were dissected out and weighed. Tissue extracts were prepared by blending blood and organs in an Ika Werk Ultra-Turrax blender in 5× vol (ml)/tissue weight (g) of 0.1N NaOH for 30 sec. After centrifugation, 50 μl samples were counted for [^3H] radioactivity. Results are expressed as %/g tissue or %/organ. As shown in FIGS. 11A and 11B, levels of untargeted BT1-CMdex-FUR ([^3H]-uridine) were low. […] Radioactivity levels in other organs were in the range of 5%/g tissue or less than 1%/organ (FIG. 11B). It can be calculated that upon injection of 200μg TNP-St as a vehicle for BT1-CMdex-FUR, 25 μg of the drug can be accumulated per gram liver.

“TNP-NL-Av: TNP-modified NeutraLite Avidin, a deglycosylated form of avidin”: the “accumulation in the spleen” value in data set [1] (mouse, in vivo) was “up to 20 %/g”.
For streptavidin, in data set [1] (mouse, in vivo), the “accumulation in the kidney” value is recorded as 70-80%; the blood levels is on record as 22-33 %/g; the “levels in other tissues, including the liver” value is listed as less than 10 %/g. For the same compound, in data set [2], the “% of the total injected dose accumulated in each kidney” value is recorded as 15% and the “levels in other organs” value was 0.3-4 %/g.
As to “^125I-BT-TNP-St: radioiodinated biotinyl-tyrosine complexed to TNP-streptavidin”, the “accumulation in whole liver, % of injected dose of radioactivity/organ” value in data set [1] (mouse, in vivo) is reported as 66-68%.
Regarding “TNP-Av: avidin modified with 2,4,6-trinitrophenyl (TNP) groups”, in data set [1] (mouse, in vivo), the “accumulation in the liver” value was 30-40 %/g and the “accumulation in the spleen” value was 10-15 %/g. Further, the “effect on body weight or survival” value in data set [3] is given as “did not seem to affect”.
For the compound “Lac-St: lactosylated streptavidin, molar substitution ratio 5:1”, the “non-hepatic values, fold lower than St or TNP-St” value in data set [1] (mouse, in vivo) is 10-20 fold.
Take “DTPA-Gd substituted St: Gd-DTPA derivative of streptavidin”: the liver accumulation result in data set [1] (liver, 24 h, FIG. 16) is recorded as “did not accumulate in the liver”.
On to “^125I-BT-St: radioiodinated biotinyl-tyrosine complexed to unmodified streptavidin”, for which the “accumulation in whole kidney, % of injected dose of radioactivity/organ” value in data set [1] (mouse, in vivo) is 10%.
In the case of `N.N.[Cl][Pt][Cl]` [CDDP, cis-dichlorodiamine platinum (cisplatin)], in data set [4], the “Pt in liver or other organs” value is “essentially no Pt could be found”.
Turning to `O=c1[nH]c(=O)n([C@@H]2O[C@H](CO)[C@@H](O)[C@H]2O)cc1F` [FUR, 5-fluorouridine], the “tissue levels of free drug” value in data set [5] was “around 1 %/g tissue”.

These data come from patent US6638508B2, “Modified avidin-type molecules as targeting agents for the liver and cells of the reticuloendothelial system” (Yeda Research and Development Co., Ltd., priority 1995, dated 2003).
